US20220281959A1 (published 2022)
Positions count from the first letter of the chain named. Ends that are not written are not given here.

T1: BSA-PEP3 peptide (also: conjugated to BSA)
T1 peptide: PWNASWSNKSLDDIW

B1: anti-PEP3 mAb 3A2 (antibody, V domains shown)
VH: QVQLQQPGAELVKPGASVKLSCKASGYIFTNYWMHWVRQRPGQGPEWIGMIHPNRGDLHYSEKFNNKATLTVDKSSSTAYMQLNSLASEDSAVYFCARAGLGVFDYWGQGSTLTVSS
VL: DVVMTQTPLSLPVSLGDQVSMSCRSSQSIEHSNRNTYLEWYLHKPGQAPQLLIYGVSNRFTGVPDRFSGSGSGTDFTLKISRVEAEDMGVYHCLQGTHVPFTFGSGTKLEIK
B2: anti-PEP3 mAb 15B4 (antibody, V domains shown)
VH: QVQLQQSGPELVRPGTSVKISCKAPGYSFTSHWMQWLRQRPGQGLEWIGEIFPGSGKTYYNEKFKDKATLTADTSSTTVYMQFSSLTSEDSAVYFCASDYDGGDYWGQGTTLTVSS
VL: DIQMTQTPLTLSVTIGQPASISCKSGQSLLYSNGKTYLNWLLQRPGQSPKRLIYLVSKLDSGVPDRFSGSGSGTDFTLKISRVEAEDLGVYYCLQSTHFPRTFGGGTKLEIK
B3: anti-PEP3 mAb 5E12 (antibody, V domains shown)
VH: QIQLVQSGPELKKPGETVKISCKASGYTFRTYGMSWVKQAPGKGLKWMGWINTYSGVPRYVDDFKGRFALSLETSASTAYLQINNLKSEDTATYFCVREGYSYYGSSFHTMDYWGQGTSVTVSS
VL: DIQMTQTPLTLSVTIGHPASISCKSSQSLLHTNGKIYLNWLLQRPGQSPKRLIYLVSKLDSGVPDRFSGSGSGTDFTLKISRVEAEDLGVYYCLQSTHFPQTFGGGTKLEIK
B4: anti-PEP3 mAb 9B12 (antibody, V domains shown)
VH: QVQLQQSGPELVKPGASVKISCKASGYGFSDSWMNWVKQRPGKGLDWIGRIYPGDGDTDYNGKFKDKATLTADKSSTTAYMQLSSLTSEDSAVYFCAYLGHWGQGTLVTVSA
VL: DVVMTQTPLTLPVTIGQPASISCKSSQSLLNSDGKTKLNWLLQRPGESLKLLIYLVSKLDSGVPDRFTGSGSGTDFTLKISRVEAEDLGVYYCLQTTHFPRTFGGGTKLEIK
B5: anti-PEP3 mAb 8D5 (antibody, V domains shown)
VH: QVQLQQPGAELIEPGTSVKLSCKASGYTFTTYWMHWVKQRPGQGLEWIGMIHPNSGDTFYNENFKNKATLTVDISSSTVYMELSSLTSEDSAVYSCVKAGTGALDYWGQGTTLTVSS
VL: DVVMTQTPLSLPVSLGDQASISCRSSQSIVHSNRYTYLEWYLQRPGQSLKLLIYGVSNRFSGVPDRFSGSGSGTDFILKISRVEAEDMGVYYCFQGTHVPFTFGSGTKLEIK
B6: anti-PEP3 gp41 mAb 4G1 (antibody, V domains shown)
VL: B5 VL with P12C, S25T, R44K, S48P, V56I, S57A, I77T, F94L
V domain: QVQLQQPGAELVKPGASVKLSCKASGYIFRNYWMHWVKQRPGQGLEWIGMIHPNSDITHYNEKFKNRATLTVDKSSSTAYMQLNSLTSEDSAVYYCARGGLGVFDYWGQGTALRVSS

target: T2, HIV-1 MN gp41 recombinant protein produced in E. coli (565-771Delta642-725) (HIV-1 MN); assay: ELISA

Row | Binder | EC50 [µg/mL]
1 | B1 | 0.02
2 | B2 | 0.3
3 | B3 | > 13
4 | B4 | > 30
5 | B5 | 0.02
6 | B6 | 0.005

target: T3, HIV-1 MN gp41 (a.a. 542-666) produced in S2 cells (UniProt P05877 542-666); assay: ELISA; curve not in saturation

Row | Binder | EC50 [µg/mL]
7 | B2 | > 11
8 | B3 | > 19
9 | B4 | > 700

target: T4, HXB2 gp41 recombinant protein (a.a. 534-681) (UniProt P04578 534-681); assay: ELISA; curve not in saturation

Row | Binder | EC50 [µg/mL]
10 | B3 | > 20
11 | B4 | > 137

target: T4, HXB2 gp41 recombinant protein (a.a. …); assay: sandwich ELISA; capture Ab

Row | Binder | EC50 [µg/mL]
12 | B1 | 0.0098
13 | B2 | 0.355
14 | B5 | 0.018

target: T2, HIV-1 MN gp41 recombinant protein …; assay: ELISA; remark: another data set of the same source

Row | Binder | EC50 [µg/mL]
15 | B1 | 0.02
16 | B2 | 0.3
17 | B3 | > 13
18 | B4 | > 30
19 | B5 | 0.02
20 | B6 | 0.005

Target: T1, BSA-PEP3 peptide
Assay: ELISA

Row | Binder | EC50 [µg/mL]
21 | B1 | 0.007
22 | B2 | 0.02
23 | B3 | 0.015
24 | B4 | 0.02
25 | B5 | 0.006

target: T3, HIV-1 MN gp41 (a.a. 542-666) produced …; assay: ELISA

Row | Binder | EC50 [µg/mL]
26 | B1 | 0.78
27 | B2 | > 11
28 | B3 | > 19
29 | B4 | > 700
30 | B5 | 0.09

target: T4, HXB2 gp41 recombinant protein (a.a. …); assay: ELISA

Row | Binder | EC50 [µg/mL]
31 | B1 | 0.0044
32 | B2 | 0.12
33 | B3 | > 20
34 | B4 | > 137
35 | B5 | 0.0005

target: T3, HIV-1 MN gp41 (a.a. 542-666) produced …; assay: ELISA; remark: another data set of the same source

Row | Binder | EC50 [µg/mL]
36 | B1 | 0.78
37 | B5 | 0.09

target: T4, HXB2 gp41 recombinant protein (a.a. …); assay: ELISA; remark: another data set of the same source

Row | Binder | EC50 [µg/mL]
38 | B1 | 0.0044
39 | B2 | 0.12
40 | B5 | 0.0005

Target: T1, BSA-PEP3 peptide
Assay: ELISA
Remark: another data set of the same source

Row | Binder | EC50 [µg/mL]
41 | B1 | 0.007
42 | B2 | 0.02
43 | B3 | 0.015
44 | B4 | 0.02
45 | B5 | 0.006
